Here are results for 18 molecules from patent US20230348578A1, “CONFORMATION-SPECIFIC ANTIBODIES THAT BIND TAU PROTEIN AND USES THEREOF” (Beth Israel Deaconess Medical Center, Inc., priority 2020, published 2023).

The target of this test is P-tau peptide (wild-type P-tau peptide and its pure cis or cis-locked, and pure trans counterparts). Nature of the test: Biacore (SPR) with P-tau peptide. On the technique in general: Surface plasmon resonance follows binding to a sensor surface in real time, without labels.

B1: Cis-mAb HT18 (humanized) (antibody, V domains shown)
VH: QVQLVQSGAEVKKPGSSVKVSCKASGYTFTSYWIHWVRQAPGQGLEWMGVIDPSDSYTRYNQKFKGRVTITRDTSMSTAYTELSSLRSEDTAVYYCTTWEVDYWGQGTLVTVSS
VL: DIQMTQSPSTLSASVGDRVTITCRSSQSLVHSDGNTYLHWYQQKPGKAPKLLIYKVSNRFSGVPSRFSGSGSGTEFTLTISSLQPDDFATYYCSQSTHVPWTFGQGTKLEIK
In general, Kd refers to the free concentration of one partner at which half of the binding sites on the other are occupied at equilibrium, for simple one-to-one binding. Lower therefore signals a tighter complex. In the case of B1, the Kd stood at 1.91 nM and the Relative KD is 1.52 fold of HT13.

B2: Cis-mAb HT13 (mouse-human chimera, control) (antibody, V domains shown)
VH: QVQLQQPGAELVKPGASVKMSCKASGYTFTSYWIHWVKQRPGQGLEWIGVIDPSDSYTRYNQKFKGKATLTVDTSSSTAYMQLSSLTSEDSAVYYCTTWEVDYWGQGTTLTVSS
VL: DVVMTQTPLSLPVSLGDQASISCRSSQSLVHSDGNTYLHWYLQKPGQSPKLLIYKVSNRFSGVPDRFSGSGSGTDFTLKISRLEAEDLGVYFCSQSTHVPWTFGGGTKLEIK
Take B2: the dissociation constant Kd came out at 1.26 nM and the Relative KD was 1 fold of HT13.

B3: Cis-mAb HT1 (humanized) (antibody, V domains shown)
VH: QVQLVQSGAELKKPGASVKMSCKASGYTFTSYWIHWVKQRPGQGLEWIGVIDPSDSYTRYNQKFKGRATLTVDTSASTAYMQLSSLTSEDSAVYYCTTWEVDYWGQGTTVTVSS
VL: DVVMTQSPLSLPVTLGQPASISCRSSQSLVHSDGNTYLHWYLQKPGQSPQLLIYKVSNRFSGVPDRFSGSGSGTDFTLKISRVEAEDVGVYFCSQSTHVPWTFGGGTKVEIK
As for B3, the Kd came to 1.83 nM and the Relative KD is 1.45 fold of HT13.

B4: Cis-mAb HT7 (humanized) (antibody, V domains shown)
VH: QVQLVQSGAEVKKPGASVKVSCKASGYTFTSYWIHWVRQRPGQGLEWIGVIDPSDSYTRYNQKFKGRVTLTVDTSASTAYMELSSLRSEDTAVYYCTTWEVDYWGQGTLVTVSS
VL: DVVMTQSPLSLPVTLGQPASISCRSSQSLVHSDGNTYLHWYLQKPGQSPQLLIYKVSNRDSGVPDRFSGSGSGTDFTLKISRVEAEDVGVYFCSQSTHVPWTFGGGTKVEIK
As for B4, the dissociation constant (Kd) was determined as 10.8 nM and the Relative KD was 8.57 fold of HT13.

B5: Cis-mAb HT17 (humanized) (antibody, V domains shown)
VH: QVQLVQSGAEVKKPGASVKVSCKASGYTFTSYWIHWVRQRPGQGLEWIGVIDPSDSYTRYNQKFKGRVTITRDTSASTAYMELSSLRSEDTAVYYCTTWEVDYWGQGTLVTVSS
VL: DVVMTQSPLSLPVTLGQPASISCRSSQSLVHSDGNTYLNWYLQKPGQSPQLLIYKVSNRFSGVPDRFSGSGSGTDFTLKISRVEAEDVGVYFCSQSTHVPWTFGGGTKVEIK
On to B5, for which the dissociation constant (Kd) is 4940 nM and the Relative KD was 3920 fold of HT13.

B6: Cis-mAb HT16 (humanized) (antibody, V domains shown)
VH: QVQLVQSGAEVKKPGASVKVSCKASGYTFTSYWIHWVRQRPGQGLEWIGVIDPSDSYTRYNQKFKGRVTLTVDTSASTAYMELSSLRSEDTAVYYCTTWEVDYWGQGTLVTVSS
VL: DVVMTQSPLSLPVTLGQPASISCRSSQSLVHSDGNTYLNWYLQKPGQSPQLLIYKVSNRFSGVPDRFSGSGSGTDFTLKISRVEAEDVGVYFCSQSTHVPWTFGGGTKVEIK
Regarding B6, the dissociation constant Kd came to 3.26 nM and the Relative KD was 2.59 fold of HT13.

B7: Cis-mAb HT9 (humanized) (antibody, V domains shown)
VH: QVQLVQSGAELKKPGASVKMSCKASGYTFTSYWIHWVKQRPGQGLEWIGVIDPSDSYTRYNQKFKGRATLTVDTSASTAYMQLSSLTSEDSAVYYCTTWEVDYWGQGTTVTVSS
VL: DVVMTQSPLSLPVTLGQPASISCRSSQSLVHSDGNTYLHWYLQKPGQSPQLLIYKVSNRFSGVPDRFSGSGSGTDFTLKISRVEAEDVGVYYCSQSTHVPWTFGGGTKVEIK
For the molecule B7, the Kd was 1.89 nM and the Relative KD was 1.5 fold of HT13.

B8: Cis-mAb HT8 (humanized) (antibody, V domains shown)
VH: QVQLVQSGAEVKKPGASVKVSCKASGYTFTSYWIHWVRQRPGQGLEWIGVIDPSDSYTRYNQKFKGRVTITRDTSASTAYMELSSLRSEDTAVYYCTTWEVDYWGQGTLVTVSS
VL: DVVMTQSPLSLPVTLGQPASISCRSSQSLVHSDGNTYLHWYLQKPGQSPQLLIYKVSNRDSGVPDRFSGSGSGTDFTLKISRVEAEDVGVYFCSQSTHVPWTFGGGTKVEIK
As for B8, the equilibrium dissociation constant (Kd) was found to be 7.68 nM and the Relative KD was 6.11 fold of HT13.

B9: Cis-mAb HT4 (humanized) (antibody, V domains shown)
VH: QVQLVQSGAEVKKPGASVKVSCKASGYTFTSYWIHWVRQRPGQGLEWIGVIDPSDSYTRYNQKFKGRVTITRDTSASTAYMELSSLRSEDTAVYYCTTWEVDYWGQGTLVTVSS
VL: DVVMTQSPLSLPVTLGQPASISCRSSQSLVHSDGNTYLHWYLQKPGQSPQLLIYKVSNRFSGVPDRFSGSGSGTDFTLKISRVEAEDVGVYFCSQSTHVPWTFGGGTKVEIK
Regarding B9, the Kd is 2.42 nM and the Relative KD is 1.92 fold of HT13.

B10: Cis-mAb HT15 (humanized) (antibody, V domains shown)
VH: QVQLVQSGAEVKKPGASVKMSCKASGYTFTSYWIHWVKQRPGQGLEWIGVIDPSDSYTRYNQKFKGRATLTVDTSASTAYMELSSLRSEDTAVYYCTTWEVDYWGQGTLVTVSS
VL: DVVMTQSPLSLPVTLGQPASISCRSSQSLVHSDGNTYLNWYLQKPGQSPQLLIYKVSNRFSGVPDRFSGSGSGTDFTLKISRVEAEDVGVYFCSQSTHVPWTFGGGTKVEIK
As to B10, the Kd was 33.4 nM and the Relative KD is 26.5 fold of HT13.

B11: Cis-mAb HT14 (humanized) (antibody, V domains shown)
VH: QVQLVQSGAELKKPGASVKMSCKASGYTFTSYWIHWVKQRPGQGLEWIGVIDPSDSYTRYNQKFKGRATLTVDTSASTAYMQLSSLTSEDSAVYYCTTWEVDYWGQGTTVTVSS
VL: DVVMTQSPLSLPVTLGQPASISCRSSQSLVHSDGNTYLNWYLQKPGQSPQLLIYKVSNRFSGVPDRFSGSGSGTDFTLKISRVEAEDVGVYFCSQSTHVPWTFGGGTKVEIK
For the molecule B11, the dissociation constant (Kd) worked out at 30.2 nM and the Relative KD is 24 fold of HT13.

B12: Cis-mAb HT12 (humanized) (antibody, V domains shown)
VH: QVQLVQSGAEVKKPGASVKVSCKASGYTFTSYWIHWVRQRPGQGLEWIGVIDPSDSYTRYNQKFKGRVTITRDTSASTAYMELSSLRSEDTAVYYCTTWEVDYWGQGTLVTVSS
VL: DVVMTQSPLSLPVTLGQPASISCRSSQSLVHSDGNTYLHWYLQKPGQSPQLLIYKVSNRFSGVPDRFSGSGSGTDFTLKISRVEAEDVGVYYCSQSTHVPWTFGGGTKVEIK
As for B12, the Kd was determined as 3.55 nM and the Relative KD was 2.82 fold of HT13.

B13: Cis-mAb HT6 (humanized) (antibody, V domains shown)
VH: QVQLVQSGAEVKKPGASVKMSCKASGYTFTSYWIHWVKQRPGQGLEWIGVIDPSDSYTRYNQKFKGRATLTVDTSASTAYMELSSLRSEDTAVYYCTTWEVDYWGQGTLVTVSS
VL: DVVMTQSPLSLPVTLGQPASISCRSSQSLVHSDGNTYLHWYLQKPGQSPQLLIYKVSNRDSGVPDRFSGSGSGTDFTLKISRVEAEDVGVYFCSQSTHVPWTFGGGTKVEIK
On to B13, for which the equilibrium dissociation constant (Kd) was found to be 6.48 nM and the Relative KD was 5.14 fold of HT13.

B14: Cis-mAb HT2 (humanized) (antibody, V domains shown)
VH: QVQLVQSGAEVKKPGASVKMSCKASGYTFTSYWIHWVKQRPGQGLEWIGVIDPSDSYTRYNQKFKGRATLTVDTSASTAYMELSSLRSEDTAVYYCTTWEVDYWGQGTLVTVSS
VL: DVVMTQSPLSLPVTLGQPASISCRSSQSLVHSDGNTYLHWYLQKPGQSPQLLIYKVSNRFSGVPDRFSGSGSGTDFTLKISRVEAEDVGVYFCSQSTHVPWTFGGGTKVEIK
Regarding B14, the dissociation constant (Kd) is 1.62 nM and the Relative KD is 1.29 fold of HT13.

B15: Cis-mAb HT10 (humanized) (antibody, V domains shown)
VH: QVQLVQSGAEVKKPGASVKMSCKASGYTFTSYWIHWVKQRPGQGLEWIGVIDPSDSYTRYNQKFKGRATLTVDTSASTAYMELSSLRSEDTAVYYCTTWEVDYWGQGTLVTVSS
VL: DVVMTQSPLSLPVTLGQPASISCRSSQSLVHSDGNTYLHWYLQKPGQSPQLLIYKVSNRFSGVPDRFSGSGSGTDFTLKISRVEAEDVGVYYCSQSTHVPWTFGGGTKVEIK
As to B15, the Kd came out at 1.77 nM and the Relative KD was 1.4 fold of HT13.

B16: Cis-mAb HT5 (humanized) (antibody, V domains shown)
VH: QVQLVQSGAELKKPGASVKMSCKASGYTFTSYWIHWVKQRPGQGLEWIGVIDPSDSYTRYNQKFKGRATLTVDTSASTAYMQLSSLTSEDSAVYYCTTWEVDYWGQGTTVTVSS
VL: DVVMTQSPLSLPVTLGQPASISCRSSQSLVHSDGNTYLHWYLQKPGQSPQLLIYKVSNRDSGVPDRFSGSGSGTDFTLKISRVEAEDVGVYFCSQSTHVPWTFGGGTKVEIK
On to B16, for which the Kd was determined as 6.91 nM and the Relative KD is 5.48 fold of HT13.

B17: Cis-mAb HT11 (humanized) (antibody, V domains shown)
VH: QVQLVQSGAEVKKPGASVKVSCKASGYTFTSYWIHWVRQRPGQGLEWIGVIDPSDSYTRYNQKFKGRVTLTVDTSASTAYMELSSLRSEDTAVYYCTTWEVDYWGQGTLVTVSS
VL: DVVMTQSPLSLPVTLGQPASISCRSSQSLVHSDGNTYLHWYLQKPGQSPQLLIYKVSNRFSGVPDRFSGSGSGTDFTLKISRVEAEDVGVYYCSQSTHVPWTFGGGTKVEIK
Take B17: the Kd amounted to 3.99 nM and the Relative KD is 3.17 fold of HT13.

B18: Cis-mAb HT3 (humanized) (antibody, V domains shown)
VH: QVQLVQSGAEVKKPGASVKVSCKASGYTFTSYWIHWVRQRPGQGLEWIGVIDPSDSYTRYNQKFKGRVTLTVDTSASTAYMELSSLRSEDTAVYYCTTWEVDYWGQGTLVTVSS
VL: DVVMTQSPLSLPVTLGQPASISCRSSQSLVHSDGNTYLHWYLQKPGQSPQLLIYKVSNRFSGVPDRFSGSGSGTDFTLKISRVEAEDVGVYFCSQSTHVPWTFGGGTKVEIK
As for B18, the dissociation constant Kd amounted to 3.51 nM and the Relative KD was 2.79 fold of HT13.
